In US20240261333A1 (published 2024):

Key:
Experiment in all cases: co-IP with anti-FLAG, mass spectrometry; lysate of cells with N-FLAG B3GNT2
RPL26 = RPL26 (human, UniProt P61254 1-145)
Description: (§1) Cells were plated in 10-cm cell culture dishes and grown to 60-80% confluency. For each condition, two biological replicates were harvested for co-IP. Cells were washed with PBS and 4 mL of lysis buffer (20 mM HEPES, 1% Triton X-100, 150 mM NaCl, 1 mM EDTA, and 10% glycerol) containing protease inhibitor cocktail was added. Cells were scraped and lysate was incubated at 4° C. under rotary agitation for 1 h. Lysate was centrifuged at 14,000×g for 10 min at 4° C. Supernatant was transferred to a new tube and an aliquot was taken as the input. […] For Western blots, 10 μg/mL Chicken Anti-FLAG (Aves labs ET-DY100) and IgY control (R&D Systems AB-101-C) antibodies were biotinylated (Thermo Fisher Scientific 90407) and added to the respective conditions. Lysates with antibodies were incubated at 4° C. under rotary agitation overnight. For each mL of lysate, 50 μL of Pierce Protein A/G Magnetic Beads (Mass spectrometry; Thermo Fisher Scientific 88803) or Pierce Streptavidin Magnetic Beads (Western blot; Thermo Fisher Scientific 88817) was washed twice with lysis buffer. Lysates with antibodies were added to the beads and incubated at 4° C. under rotary agitation for 4 h. Beads were washed with lysis buffer 3 times and resuspended in lysis buffer for storage.
(§2) Magnetic beads were resuspended in 100 mM Tris pH 7.8, reduced, alkylated and digested with trypsin at 37° ° C. overnight. This solution was subjected to solid phase extraction to concentrate the peptides and remove unwanted reagents followed by injection onto a Shimadzu HPLC with fraction collector. Eight fractions were collected and after concentration were injected on a Waters NanoAcquity HPLC equipped with a self-packed Aeris 3 μm C18 analytical column 0.075 mm by 20 cm, (Phenomenex). Peptides were eluted using standard reverse-phase gradients. The effluent from the column was analyzed using a Thermo Orbitrap Elite mass spectrometer (nanospray configuration) operated in a data dependent manner for 54 minutes. The resulting fragmentation spectra were correlated against the known database using Proteome Discover 1.4 (Thermo Fisher Scientific).

CD70 = biological target: T1, CD70 (human, UniProt P32970 1-193)
T1 construct: also called NP_001243.1
T1 sequence (looked up): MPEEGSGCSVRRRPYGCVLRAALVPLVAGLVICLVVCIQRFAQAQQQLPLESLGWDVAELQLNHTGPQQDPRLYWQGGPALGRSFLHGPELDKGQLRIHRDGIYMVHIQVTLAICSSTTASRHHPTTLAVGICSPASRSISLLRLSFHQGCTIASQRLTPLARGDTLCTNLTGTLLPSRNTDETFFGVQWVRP
Description: as §1, §2

STAU2 = biological target: T2, STAU2 (human, UniProt Q9NUL3 1-570, limits assumed)
T2 construct: also called NP_001157852.1 (+4)
T2 sequence (looked up): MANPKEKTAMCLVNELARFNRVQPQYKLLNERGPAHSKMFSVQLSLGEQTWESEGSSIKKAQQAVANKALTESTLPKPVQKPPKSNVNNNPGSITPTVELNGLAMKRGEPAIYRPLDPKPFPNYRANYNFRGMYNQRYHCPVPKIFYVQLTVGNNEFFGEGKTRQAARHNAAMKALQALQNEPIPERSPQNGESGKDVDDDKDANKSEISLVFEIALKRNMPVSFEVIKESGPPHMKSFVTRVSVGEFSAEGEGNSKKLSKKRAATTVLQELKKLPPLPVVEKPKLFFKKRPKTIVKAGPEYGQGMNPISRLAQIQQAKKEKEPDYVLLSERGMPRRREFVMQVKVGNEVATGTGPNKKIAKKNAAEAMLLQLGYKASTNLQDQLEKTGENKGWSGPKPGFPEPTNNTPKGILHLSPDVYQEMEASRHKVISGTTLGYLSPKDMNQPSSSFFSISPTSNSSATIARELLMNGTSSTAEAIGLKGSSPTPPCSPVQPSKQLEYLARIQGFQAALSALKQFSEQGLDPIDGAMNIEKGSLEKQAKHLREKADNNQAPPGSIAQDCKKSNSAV
Description: as §1, §2

RPL32 = RPL32 (human, UniProt P62910 2-135)
Description: as §1, §2

SDF4 = biological target: T3, SDF4 (human, UniProt Q9BRK5 37-362)
T3 construct: also called NP_057260.2 (+2)
T3 sequence (looked up): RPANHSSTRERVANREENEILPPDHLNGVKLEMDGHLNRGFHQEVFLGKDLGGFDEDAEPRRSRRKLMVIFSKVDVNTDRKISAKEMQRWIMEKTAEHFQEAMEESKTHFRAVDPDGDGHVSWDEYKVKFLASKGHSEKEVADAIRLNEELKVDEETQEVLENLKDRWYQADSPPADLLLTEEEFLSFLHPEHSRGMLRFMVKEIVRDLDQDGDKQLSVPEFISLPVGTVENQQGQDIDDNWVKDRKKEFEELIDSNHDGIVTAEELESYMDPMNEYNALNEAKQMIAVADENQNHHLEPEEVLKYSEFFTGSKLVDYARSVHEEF
Description: as §1, §2

CCT7 = biological target: T4, CCT7 (human, UniProt Q99832-3 1-499, limits assumed)
T4 construct: also called NP_001159757.1 (+1)
T4 sequence (looked up): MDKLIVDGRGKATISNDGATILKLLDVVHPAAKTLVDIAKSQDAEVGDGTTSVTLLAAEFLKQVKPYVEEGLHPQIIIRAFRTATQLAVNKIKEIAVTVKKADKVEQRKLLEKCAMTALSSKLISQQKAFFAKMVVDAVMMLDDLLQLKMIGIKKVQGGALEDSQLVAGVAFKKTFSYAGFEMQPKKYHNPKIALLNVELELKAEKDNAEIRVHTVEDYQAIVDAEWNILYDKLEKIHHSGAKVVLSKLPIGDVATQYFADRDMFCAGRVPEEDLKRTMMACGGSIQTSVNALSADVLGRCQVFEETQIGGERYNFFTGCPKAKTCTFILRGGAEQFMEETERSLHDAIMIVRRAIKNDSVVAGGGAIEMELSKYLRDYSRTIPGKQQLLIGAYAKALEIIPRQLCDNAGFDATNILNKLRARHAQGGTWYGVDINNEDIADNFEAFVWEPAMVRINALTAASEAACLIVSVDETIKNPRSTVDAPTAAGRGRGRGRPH
Description: as §1, §2

co-IP mass spectrometry count (RPL26): 7 | co-IP mass spectrometry count (CD70): 0 | co-IP mass spectrometry count (STAU2): 0 | co-IP mass spectrometry count (RPL32): 0 | co-IP mass spectrometry count (SDF4): 0 | co-IP mass spectrometry count (CCT7): 0
B1: N-terminal FLAG tagged B3GNT2 (enzyme, human, UniProt Q9NY97 1-397, looked up)
chain: MSVGRRRIKLLGILMMANVFIYFIMEVSKSSSQEKNGKGEVIIPKEKFWKISTPPEAYWNREQEKLNRQYNPILSMLTNQTGEAGRLSNISHLNYCEPDLRVTSVVTGFNNLPDRFKDFLLYLRCRNYSLLIDQPDKCAKKPFLLLAIKSLTPHFARRQAIRESWGQESNAGNQTVVRVFLLGQTPPEDNHPDLSDMLKFESEKHQDILMWNYRDTFFNLSLKEVLFLRWVSTSCPDTEFVFKGDDDVFVNTHHILNYLNSLSKTKAKDLFIGDVIHNAGPHRDKKLKYYIPEVVYSGLYPPYAGGGGFLYSGHLALRLYHITDQVHLYPIDDVYTGMCLQKLGLVPEKHKGFRTFDIEEKNKNNICSYVDLMLVHSRKPQEMIDIWSQLQSAHLKC
notes: Bait of the co-IP; pulled down with mouse anti-FLAG (Millipore Sigma F3165) from cell lysate; also called N-FLAG B3GNT2; N-term FLAG; not shown: N-terminal FLAG tag
